Assay [1] has as its target T1, rat amylin receptor (rat calcitonin receptor + rat RAMP 3) (rat, UniProt P32214 25-516; Q9JJ73 23-147).
T1 construct: whole, on cells; Cell membranes of transiently transfected BHK tk'ts 13 cells (Assay VI); also called rAmylin-R; rat amylin 3(a) receptor
T1 sequence (looked up) 1: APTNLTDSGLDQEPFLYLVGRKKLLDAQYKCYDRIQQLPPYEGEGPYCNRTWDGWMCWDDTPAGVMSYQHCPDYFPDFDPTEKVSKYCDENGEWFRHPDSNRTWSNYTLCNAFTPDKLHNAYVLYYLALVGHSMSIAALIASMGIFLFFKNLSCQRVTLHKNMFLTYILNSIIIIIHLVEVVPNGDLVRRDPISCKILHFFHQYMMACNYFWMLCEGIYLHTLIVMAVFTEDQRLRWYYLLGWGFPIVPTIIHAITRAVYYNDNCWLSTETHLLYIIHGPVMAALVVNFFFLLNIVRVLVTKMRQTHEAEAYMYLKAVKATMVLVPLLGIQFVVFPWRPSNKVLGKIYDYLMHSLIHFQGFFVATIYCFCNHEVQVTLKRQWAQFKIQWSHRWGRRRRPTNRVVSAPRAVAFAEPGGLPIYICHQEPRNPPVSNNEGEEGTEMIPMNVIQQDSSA
T1 sequence (looked up) 2: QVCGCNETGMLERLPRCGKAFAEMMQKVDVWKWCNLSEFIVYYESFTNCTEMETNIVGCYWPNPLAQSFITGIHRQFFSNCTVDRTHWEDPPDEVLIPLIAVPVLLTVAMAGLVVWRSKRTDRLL
The assay can be described thus: SPA competition vs 125I-rat amylin, membranes with rat CTR + rat RAMP3 (Assay VI).

Assay [2] has as its target T2, rat calcitonin receptor (rat, UniProt P32214 25-516).
T2 construct: whole, on cells; Cell membranes of transiently transfected BHK tk'ts 13 cells (Assay VIII); also called rCTR; rCT
T2 sequence (looked up): T1 sequence (looked up) 1
Put plainly: ratio IC50 rat calcitonin receptor / IC50 rat amylin receptor.

The target of assay [3] is T2, rat calcitonin receptor. Put plainly: SPA competition vs 125I-calcitonin, membranes with rat CTR (Assay VIII).
Assay [4] concerns the target T3, human calcitonin receptor (human, UniProt P30988 25-474).
T3 construct: whole, on cells; Cell membranes of a stably transfected BHK cell line (Assay VII); also called hCTR; hCT
T3 sequence (looked up): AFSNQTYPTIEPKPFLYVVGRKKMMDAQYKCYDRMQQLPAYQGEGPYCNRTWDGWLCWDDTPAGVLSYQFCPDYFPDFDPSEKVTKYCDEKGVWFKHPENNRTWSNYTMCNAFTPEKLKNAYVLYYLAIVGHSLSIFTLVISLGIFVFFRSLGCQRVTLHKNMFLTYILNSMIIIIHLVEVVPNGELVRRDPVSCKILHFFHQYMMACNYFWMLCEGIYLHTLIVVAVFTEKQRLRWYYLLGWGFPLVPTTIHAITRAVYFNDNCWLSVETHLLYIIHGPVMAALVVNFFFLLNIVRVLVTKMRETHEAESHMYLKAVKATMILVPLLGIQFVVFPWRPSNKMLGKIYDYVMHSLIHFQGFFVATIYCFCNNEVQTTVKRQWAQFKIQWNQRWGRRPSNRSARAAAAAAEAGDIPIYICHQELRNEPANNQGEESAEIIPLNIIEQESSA
The assay can be described thus: ratio IC50 human calcitonin receptor / IC50 human amylin receptor. The method, boiled down:
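Competition binding by SPA with cell membranes (35 ng/μL) and SPA beads in 50 mM Hepes pH 7.4 with 1 mM CaCl2, 5 mM MgCl2, 0.1% OA and 0.02% Tween20. Incubated 120 min at 25 °C with shaking, then counted.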

Assay [5] addresses T4, human calcitonin receptor (human, UniProt P30988 25-474).
T4 sequence (looked up): T3 sequence (looked up)
Put plainly: cell-based or functional assay.

In assay [6] the target is T5, human amylin 3(a) receptor (human calcitonin receptor + RAMP-3) (human, UniProt P30988 25-474; O60896 24-148, limits assumed).
T5 sequence (looked up) 1: T3 sequence (looked up)
T5 sequence (looked up) 2: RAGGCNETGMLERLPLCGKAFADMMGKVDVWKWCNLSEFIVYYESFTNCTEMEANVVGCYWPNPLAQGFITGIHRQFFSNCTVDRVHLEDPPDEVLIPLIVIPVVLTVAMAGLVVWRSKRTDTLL
The assay can be described thus: cell-based or functional assay.

As usually defined, the IC50 is the concentration that gives 50% inhibition.

Numbered stars: 1 amine (or outer) side, 2 acyl side, 3 side chain; on linkers, the order of the positions; unused ones are H or OH. Bridge positions count the residues as written; N and C are the ends. Side chains are listed from the residue outwards. Ends that are not written are not given here. * marks the point of attachment. C20 diacid = O=C(O)CCCCCCCCCCCCCCCCCCC(=O)*; γGlu = O=C(O)[C@H](CCC(=O)[*:2])N[*:1]

B1: N^ε1-[(4S)-4-carboxy-4-(19-carboxynonadecanoylamino)butanoyl]-[Arg17,Pro21,Pro27]-h-amylin (peptide)
peptide: K([γGlu-C20 diacid])CNTATCATQRLANFLRHSSPNFGAIPSSTNVGSNTY-NH2
modifications: disulfide 2-7; N-terminus assumed
SMILES: CC[C@H](C)[C@H](NC(=O)[C@H](C)NC(=O)CNC(=O)[C@H](Cc1ccccc1)NC(=O)[C@H](CC(N)=O)NC(=O)[C@@H]1CCCN1C(=O)[C@H](CO)NC(=O)[C@H](CO)NC(=O)[C@H](Cc1c[nH]cn1)NC(=O)[C@H](CCCNC(=N)N)NC(=O)[C@H](CC(C)C)NC(=O)[C@H](Cc1ccccc1)NC(=O)[C@H](CC(N)=O)NC(=O)[C@H](C)NC(=O)[C@H](CC(C)C)NC(=O)[C@H](CCCNC(=N)N)NC(=O)[C@H](CCC(N)=O)NC(=O)[C@@H](NC(=O)[C@H](C)NC(=O)[C@@H]1CSSC[C@H](NC(=O)[C@@H](N)CCCCNC(=O)CC[C@H](NC(=O)CCCCCCCCCCCCCCCCCCC(=O)O)C(=O)O)C(=O)N[C@@H](CC(N)=O)C(=O)N[C@@H]([C@@H](C)O)C(=O)N[C@@H](C)C(=O)N[C@@H]([C@@H](C)O)C(=O)N1)[C@@H](C)O)C(=O)N1CCC[C@H]1C(=O)N[C@@H](CO)C(=O)N[C@@H](CO)C(=O)N[C@H](C(=O)N[C@@H](CC(N)=O)C(=O)N[C@H](C(=O)NCC(=O)N[C@@H](CO)C(=O)N[C@@H](CC(N)=O)C(=O)N[C@H](C(=O)N[C@@H](Cc1ccc(O)cc1)C(N)=O)[C@@H](C)O)C(C)C)[C@@H](C)O
notes: Acylated analogue of human amylin; also called compound 48
For B1, the half-inhibitory concentration (IC50) in assay [1] amounted to 0.558 nM; with rat calcitonin receptor [3] it was 112 nM. In addition, the “Ratio rCT/rAmylin binding” value with rat calcitonin receptor [2] is 201. Besides, the “Ratio hCT/hAmylin binding” value in assay [4] is 69.7.

B2: N^α1-[(4S)-4-carboxy-4-(19-carboxynonadecanoylamino)butanoyl]-[Glu14,Arg17,Pro21,Pro27,Pro37]-h-amylin (peptide)
peptide: {C20 diacid-γGlu}-KCNTATCATQRLAEFLRHSSPNFGAIPSSTNVGSNTP-NH2
modifications: disulfide 2-7
SMILES: CC[C@H](C)[C@H](NC(=O)[C@H](C)NC(=O)CNC(=O)[C@H](Cc1ccccc1)NC(=O)[C@H](CC(N)=O)NC(=O)[C@@H]1CCCN1C(=O)[C@H](CO)NC(=O)[C@H](CO)NC(=O)[C@H](Cc1c[nH]cn1)NC(=O)[C@H](CCCNC(=N)N)NC(=O)[C@H](CC(C)C)NC(=O)[C@H](Cc1ccccc1)NC(=O)[C@H](CCC(=O)O)NC(=O)[C@H](C)NC(=O)[C@H](CC(C)C)NC(=O)[C@H](CCCNC(=N)N)NC(=O)[C@H](CCC(N)=O)NC(=O)[C@@H](NC(=O)[C@H](C)NC(=O)[C@@H]1CSSC[C@H](NC(=O)[C@H](CCCCN)NC(=O)CC[C@H](NC(=O)CCCCCCCCCCCCCCCCCCC(=O)O)C(=O)O)C(=O)N[C@@H](CC(N)=O)C(=O)N[C@@H]([C@@H](C)O)C(=O)N[C@@H](C)C(=O)N[C@@H]([C@@H](C)O)C(=O)N1)[C@@H](C)O)C(=O)N1CCC[C@H]1C(=O)N[C@@H](CO)C(=O)N[C@@H](CO)C(=O)N[C@H](C(=O)N[C@@H](CC(N)=O)C(=O)N[C@H](C(=O)NCC(=O)N[C@@H](CO)C(=O)N[C@@H](CC(N)=O)C(=O)N[C@H](C(=O)N1CCC[C@H]1C(N)=O)[C@@H](C)O)C(C)C)[C@@H](C)O
notes: also called compound 8
On to B2, for which the “Ratio hCT/hAmylin funct.” value in assay [5] is 1.1. Moreover, the “hAmylin-R funct. EC50 (pM)” value in assay [6] turned out to be 82 pM.

B3: N^α1-[(4S)-4-carboxy-4-(19-carboxynonadecanoylamino)butanoyl]-[Glu14,Arg17,Pro21,Pro27,His35]-h-amylin (peptide)
peptide: {C20 diacid-γGlu}-KCNTATCATQRLAEFLRHSSPNFGAIPSSTNVGSHTY-NH2
modifications: disulfide 2-7
SMILES: CC[C@H](C)[C@H](NC(=O)[C@H](C)NC(=O)CNC(=O)[C@H](Cc1ccccc1)NC(=O)[C@H](CC(N)=O)NC(=O)[C@@H]1CCCN1C(=O)[C@H](CO)NC(=O)[C@H](CO)NC(=O)[C@H](Cc1c[nH]cn1)NC(=O)[C@H](CCCNC(=N)N)NC(=O)[C@H](CC(C)C)NC(=O)[C@H](Cc1ccccc1)NC(=O)[C@H](CCC(=O)O)NC(=O)[C@H](C)NC(=O)[C@H](CC(C)C)NC(=O)[C@H](CCCNC(=N)N)NC(=O)[C@H](CCC(N)=O)NC(=O)[C@@H](NC(=O)[C@H](C)NC(=O)[C@@H]1CSSC[C@H](NC(=O)[C@H](CCCCN)NC(=O)CC[C@H](NC(=O)CCCCCCCCCCCCCCCCCCC(=O)O)C(=O)O)C(=O)N[C@@H](CC(N)=O)C(=O)N[C@@H]([C@@H](C)O)C(=O)N[C@@H](C)C(=O)N[C@@H]([C@@H](C)O)C(=O)N1)[C@@H](C)O)C(=O)N1CCC[C@H]1C(=O)N[C@@H](CO)C(=O)N[C@@H](CO)C(=O)N[C@H](C(=O)N[C@@H](CC(N)=O)C(=O)N[C@H](C(=O)NCC(=O)N[C@@H](CO)C(=O)N[C@@H](Cc1c[nH]cn1)C(=O)N[C@H](C(=O)N[C@@H](Cc1ccc(O)cc1)C(N)=O)[C@@H](C)O)C(C)C)[C@@H](C)O
notes: also called compound 18
Regarding B3, the “Ratio hCT/hAmylin funct.” value in assay [5] is 4.8. Further, the “hAmylin-R funct. EC50 (pM)” value in assay [6] amounted to 154 pM.

B4: N^α1-[(4S)-4-carboxy-4-(19-carboxynonadecanoylamino)butanoyl]-[Asp14,Arg17,Pro21,Pro27,Pro37]-h-amylin (peptide)
peptide: {C20 diacid-γGlu}-KCNTATCATQRLADFLRHSSPNFGAIPSSTNVGSNTP-NH2
modifications: disulfide 2-7
SMILES: CC[C@H](C)[C@H](NC(=O)[C@H](C)NC(=O)CNC(=O)[C@H](Cc1ccccc1)NC(=O)[C@H](CC(N)=O)NC(=O)[C@@H]1CCCN1C(=O)[C@H](CO)NC(=O)[C@H](CO)NC(=O)[C@H](Cc1c[nH]cn1)NC(=O)[C@H](CCCNC(=N)N)NC(=O)[C@H](CC(C)C)NC(=O)[C@H](Cc1ccccc1)NC(=O)[C@H](CC(=O)O)NC(=O)[C@H](C)NC(=O)[C@H](CC(C)C)NC(=O)[C@H](CCCNC(=N)N)NC(=O)[C@H](CCC(N)=O)NC(=O)[C@@H](NC(=O)[C@H](C)NC(=O)[C@@H]1CSSC[C@H](NC(=O)[C@H](CCCCN)NC(=O)CC[C@H](NC(=O)CCCCCCCCCCCCCCCCCCC(=O)O)C(=O)O)C(=O)N[C@@H](CC(N)=O)C(=O)N[C@@H]([C@@H](C)O)C(=O)N[C@@H](C)C(=O)N[C@@H]([C@@H](C)O)C(=O)N1)[C@@H](C)O)C(=O)N1CCC[C@H]1C(=O)N[C@@H](CO)C(=O)N[C@@H](CO)C(=O)N[C@H](C(=O)N[C@@H](CC(N)=O)C(=O)N[C@H](C(=O)NCC(=O)N[C@@H](CO)C(=O)N[C@@H](CC(N)=O)C(=O)N[C@H](C(=O)N1CCC[C@H]1C(N)=O)[C@@H](C)O)C(C)C)[C@@H](C)O
notes: also called compound 10
Regarding B4, in assay [5], the “Ratio hCT/hAmylin funct.” value worked out at 1. Besides, the “hAmylin-R funct. EC50 (pM)” value in assay [6] is 72 pM.

B5: N^α1-[(4S)-4-carboxy-4-(19-carboxynonadecanoylamino)butanoyl]-[Glu14,Arg17,Pro21,Pro27,Asp35,Pro37]-h-amylin (peptide)
peptide: {C20 diacid-γGlu}-KCNTATCATQRLAEFLRHSSPNFGAIPSSTNVGSDTP-NH2
modifications: disulfide 2-7
SMILES: CC[C@H](C)[C@H](NC(=O)[C@H](C)NC(=O)CNC(=O)[C@H](Cc1ccccc1)NC(=O)[C@H](CC(N)=O)NC(=O)[C@@H]1CCCN1C(=O)[C@H](CO)NC(=O)[C@H](CO)NC(=O)[C@H](Cc1c[nH]cn1)NC(=O)[C@H](CCCNC(=N)N)NC(=O)[C@H](CC(C)C)NC(=O)[C@H](Cc1ccccc1)NC(=O)[C@H](CCC(=O)O)NC(=O)[C@H](C)NC(=O)[C@H](CC(C)C)NC(=O)[C@H](CCCNC(=N)N)NC(=O)[C@H](CCC(N)=O)NC(=O)[C@@H](NC(=O)[C@H](C)NC(=O)[C@@H]1CSSC[C@H](NC(=O)[C@H](CCCCN)NC(=O)CC[C@H](NC(=O)CCCCCCCCCCCCCCCCCCC(=O)O)C(=O)O)C(=O)N[C@@H](CC(N)=O)C(=O)N[C@@H]([C@@H](C)O)C(=O)N[C@@H](C)C(=O)N[C@@H]([C@@H](C)O)C(=O)N1)[C@@H](C)O)C(=O)N1CCC[C@H]1C(=O)N[C@@H](CO)C(=O)N[C@@H](CO)C(=O)N[C@H](C(=O)N[C@@H](CC(N)=O)C(=O)N[C@H](C(=O)NCC(=O)N[C@@H](CO)C(=O)N[C@@H](CC(=O)O)C(=O)N[C@H](C(=O)N1CCC[C@H]1C(N)=O)[C@@H](C)O)C(C)C)[C@@H](C)O
notes: also called compound 11
With B5, in assay [5], the “Ratio hCT/hAmylin funct.” value came out at 0.9. Moreover, the “hAmylin-R funct. EC50 (pM)” value in assay [6] turned out to be 120 pM.

The values are drawn from patent US20140087995A1 (published 2014).
